Here are results for 13 molecules from patent publication US20030148264A1, “Phage displayed PDZ domain ligands” (GENENTECH, INC., priority 2001, published 2003).

As usually defined, the IC50 is the concentration that inhibits the measured activity by half. Read a low IC50 as higher potency.

Test [1] deals with Caco-2 cells. Nature of the test: Peptide targeting in live Caco-2 cells (fluorescein coupled peptides, confocal microscopy). The class given is cell-based. The settings on record: polarised Caco-2 monolayer, overnight incubation, 2 mM or 5 mM peptide; FIG. 5. How it is done: Caco-2 cells were grown on polycarbonate transwell filters (12 mm diameter, 0.4 μm pore size; Costar) in same media as HEK 293 cells) until a fully polarized monolayer was obtained as determined by resistance measurements. The live cells were then incubated overnight with amino terminally, fluorescein (FAM) coupled peptides: (A) 2 μM of ATQITWV (SEQ ID NO:214), (B) 2 μM ATQITWA (SEQ ID NO:215) or (C) 5 μM ASKITWV (SEQ ID NO:216) added into the media of the lower transwell chamber. The cells were then washed with Hanks Balanced Salt Solution (HBSS) with 1.8 mM CaCl2, fixed with ice cold methanol, permeabilized with 0.25% Triton X-100 in PBS, blocked with 5% donkey serum in PBS and stained with 1.5 μg monoclonal anti-γ-catenin antibody. The basolateral marker protein γ-catenin was visualized using Cy3-conjugated donkey anti-mouse antibodies (Jackson Immunolabs), diluted 1:1000. Processed filters were excised with a razor and mounted between a slide and coverslip with Vectashield mounting medium (Vector Labs; Burlingame, Calif.). Images were taken on a Leica confocal microscope using a 63X oil immersion objective.
Caco-2 cells were grown on polycarbonate transwell filters until a fully polarised monolayer was obtained. The live cells were then incubated overnight with the fluorescein (green) coupled peptides: (A) 2 mM of ATQITWV (SEQ ID NO:214), (B) 2 mM ATQITWA (SEQ ID NO:215) or (C) 5 mM ASKITW (SEQ ID NO:221) (FIG. 5). The cells were then fixed and counterstained with antibodies against the protein γ-catenin (FIG. 5). […] Substitution of A for V at the peptide carboxyl terminus should disrupt the interaction of a ligand with its cognate PDZ binding partner.

Test [2] deals with T1, MAGI 3 PDZ2 (Homo sapiens, UniProt Q5TCQ9).
T1 sequence (Q5TCQ9 584-707 isoform Q5TCQ9-2): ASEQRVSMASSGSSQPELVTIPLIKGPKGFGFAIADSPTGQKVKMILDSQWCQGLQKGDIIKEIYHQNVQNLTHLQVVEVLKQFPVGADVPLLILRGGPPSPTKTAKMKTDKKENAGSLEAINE
Nature of the test: Biotinylated peptide pull-down of PDZ domains from HEK 293 cell extracts. The settings on record: GST fusion, FIG. 4, FIG. 8. The class given is binding. Also noted: PDZ 2; aa; expressed in transfected cells; host or cells: HEK 293. The protocol:
(§1) HEK 293 (293) cells grown in high glucose Dulbeco's Modified Eagle Medium (DMEM), 10% fetal calf serum, 1× non-essential amino acid supplement, 1×L-glutamine supplement, 10 mM HEPES (pH 7.4) and penicillin/streptomycin (all from Life Technologies) to ˜80% confluence were transfected with 2 μg DNA/35 mm diameter well (for example, DNAs encoding the sequences described in EXAMPLE 5.0) using Fugene reagent (Roche Biochemical). 24 hours post-transfection, cells were washed once with PBS and then scraped into 1 ml/well of 20 mM Tris (pH 7.5), 1% Triton X-100, 200 mM NaCl, 1 mM dithiothreitol, and protease inhibitor cocktail with EDTA (Roche Biochemical, catalog #1836145) and homogenized gently with three to five strokes in a dounce (Wheaton) using a loose glass pestle. Extracts were centrifuged at 12,000 rpm in a tabletop centrifuge at 4° C. for 10 minutes; the supernatant was combined with an equal volume of homogenization buffer without NaCl to achieve a final salt concentration of 100 mM and frozen at −70° C. until use. For peptide-pull-down experiments of MAGI-3 PDZ domains or the ERBIN PDZ domain, 100 μl of 293 cell extract was diluted to 400 μl in binding buffer (homogenization buffer modified to 100 mM NaCl) and incubated with 10 μM amino-terminally biotinylated peptide and 100 μl of strepavidin agarose (Sigma) for 2 hours on a rotator at 4° C. The beads were washed three times with 1 ml binding buffer and boiled in 60 μl of Laemmli's reducing sample buffer, of which 15 μl was loaded onto SDS-gels. PDZ domains co-precipitated with a given biotinylated peptide were visualized by immunoblot analysis using anti-GST (Genentech) or anti-GFP (Clontech) antibodies. […] Binding of 293 cell-expressed proteins was detected by immunoblot analysis using antibodies against GFP (Clontech) and Her 2 (Santa Cruz Biotechnology). […]

Test [3] concerns the target T2, MAGI-3 PDZ 3 (Homo sapiens, UniProt Q5TCQ9).
T2 construct: PDZ 3; aa; expressed in transfected cells; host or cells: HEK 293
T2 sequence (Q5TCQ9 741-840 isoform Q5TCQ9-2): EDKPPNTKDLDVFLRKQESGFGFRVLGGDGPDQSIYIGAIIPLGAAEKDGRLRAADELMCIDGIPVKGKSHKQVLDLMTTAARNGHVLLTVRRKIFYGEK
The description is as above. The settings on record: GST fusion, FIG. 4. The class given is binding. How it is done: as §1, with “use.” for “use. For peptide-pull-down experiments of MAGI-3 PDZ domains or the ERBIN PDZ domain, 100 μl of 293 cell extract was diluted to 400 μl in binding buffer (homogenization buffer modified to 100 mM NaCl) and incubated with 10 μM amino-terminally biotinylated peptide and 100 μl of strepavidin agarose (Sigma) for 2 hours on a rotator at 4° C. The beads were washed three times with 1 ml binding buffer and boiled in 60 μl of Laemmli's reducing sample buffer, of which 15 μl was loaded onto SDS-gels. PDZ domains co-precipitated with a given biotinylated peptide were visualized by immunoblot analysis using anti-GST (Genentech) or anti-GFP (Clontech) antibodies.”

The target of test [4] is GST-MAGI-3 PDZ 2 (aa. 584-707 of SEQ ID NO:200) (human) [GST: P08515]. Nature of the test: competition ELISA. On the technique in general: In an ELISA, binding on a coated surface is turned into a signal by an enzyme label.
For test [5] the target is unchanged. Nature of the test: competition ELISA: peptide blocks GST-PDZ binding to immobilized peptide.
The target in test [6] is ERBIN PDZ-GST fusion protein (aa. 1217-1371 of SEQ ID NO:201) (human) [GST: P08515]. Nature of the test: competition ELISA: ERBIN PDZ-GST binding to immobilized biotin-PDZ 501.
The target in test [7] is ERBIN PDZ domain (Homo sapiens, UniProt Q96RT1). Nature of the test: GST-PDZ co-precipitation of proteins from transfected HEK 293 cell extracts. The test is classed as binding. The arrangement: made in house; host or cells: E. coli. The settings on record: extracts from transfected HEK 293 cells; FIG. 6. The protocol:
HEK 293 (293) cells grown in high glucose Dulbeco's Modified Eagle Medium (DMEM), 10% fetal calf serum, 1× non-essential amino acid supplement, 1×L-glutamine supplement, 10 mM HEPES (pH 7.4) and penicillin/streptomycin (all from Life Technologies) to ˜80% confluence were transfected with 2 μg DNA/35 mm diameter well (for example, DNAs encoding the sequences described in EXAMPLE 5.0) using Fugene reagent (Roche Biochemical). 24 hours post-transfection, cells were washed once with PBS and then scraped into 1 ml/well of 20 mM Tris (pH 7.5), 1% Triton X-100, 200 mM NaCl, 1 mM dithiothreitol, and protease inhibitor cocktail with EDTA (Roche Biochemical, catalog #1836145) and homogenized gently with three to five strokes in a dounce (Wheaton) using a loose glass pestle. Extracts were centrifuged at 12,000 rpm in a tabletop centrifuge at 4° C. for 10 minutes; the supernatant was combined with an equal volume of homogenization buffer without NaCl to achieve a final salt concentration of 100 mM and frozen at −70° C. until use. […] Binding of 293 cell-expressed proteins was detected by immunoblot analysis using antibodies against GFP (Clontech) and Her 2 (Santa Cruz Biotechnology).
Amino acids 1217-1371 of ERBIN and 584-707 corresponding to PDZ 2 of MAGI-3 (Sidhu et al., 2000); were expressed in E. coli as GST fusions. […] Equal volumes of extract and depleted extract (sup.) were analyzed.

For test [8], the target named is GST-MAGI-3 PDZ 3 (aa. 741-840 of SEQ ID NO:200) (human) [GST: P08515]. Nature of the test: competition ELISA: peptide blocks GST-PDZ binding to immobilized peptide.
For test [9] the target is unchanged. Nature of the test: competition ELISA.
The target of test [10] is T3, GST-MAGI-3 PDZ 2 (aa. 584-707 of SEQ ID NO:200) (human, UniProt P08515 1-218 = GST). Nature of the test: competition ELISA: peptide blocks GST-PDZ binding to immobilized peptide.
Test [11] addresses T3, GST-MAGI-3 PDZ 2 (aa. 584-707 of SEQ ID …). Nature of the test: competition ELISA.

Chain of GST-MAGI-3 PDZ 2 (aa. 584-707 of SEQ ID NO:200) (human) [GST: P08515] (P08515 whole entry): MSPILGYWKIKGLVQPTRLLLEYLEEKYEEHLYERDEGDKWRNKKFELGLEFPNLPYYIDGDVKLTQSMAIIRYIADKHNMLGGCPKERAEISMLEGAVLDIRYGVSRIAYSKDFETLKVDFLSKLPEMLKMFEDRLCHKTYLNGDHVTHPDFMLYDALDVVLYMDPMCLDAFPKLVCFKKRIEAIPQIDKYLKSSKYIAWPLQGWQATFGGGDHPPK
Chain of GST-MAGI-3 PDZ 3 (aa. 741-840 of SEQ ID NO:200) (human) [GST: P08515] (P08515 whole entry): as above
T3 sequence (P08515 whole entry): as above
Chain of ERBIN PDZ-GST fusion protein (aa. 1217-1371 of SEQ ID NO:201) (human) [GST: P08515] (P08515 whole entry, the tested form may be a part): as the sequence (P08515 whole entry) above
Chain of ERBIN PDZ domain (Q96RT1 1258-1412): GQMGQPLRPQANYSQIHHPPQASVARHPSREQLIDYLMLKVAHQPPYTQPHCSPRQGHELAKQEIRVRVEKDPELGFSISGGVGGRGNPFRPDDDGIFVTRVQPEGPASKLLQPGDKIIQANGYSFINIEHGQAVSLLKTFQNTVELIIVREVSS

Take “ASKITWV [amino terminally fluorescein (FAM) coupled peptide]”: the “localization of fluorescein coupled peptide in live cells” value (shortened to “localization”) in test [1] is given as “localize apically on the lateral membrane to the tight junction”.
On to “ATQITKV [biotinylated peptide with W to K change at the (−1) position, reference compound]”, for which the “precipitation of MAGI-3 PDZ 2 from cell extracts by biotinylated peptide” value in test [2] is given as “did not bind”. The “precipitation of MAGI-3 PDZ 3 from cell extracts by biotinylated peptide” value in test [3] is “did not bind”.
Consider “ATQITWA [V to A change at the (0) position; used biotinylated or fluorescein coupled]”, for which the “precipitation of MAGI-3 PDZ 2 from cell extracts by biotinylated peptide” value in [2] is listed as “did not bind”. In [3], the “precipitation of MAGI-3 PDZ 3 from cell extracts by biotinylated peptide” value was “did not bind”. Moreover, in test [1], the “localization” value is listed as “does not target to the tight junction”.
Consider “ATQITWV [derivative of the C-terminus of PTEN, K to W at (−1); used biotinylated or fluorescein coupled]”, for which the “precipitation of MAGI-3 PDZ 2 from cell extracts by biotinylated peptide” value in test [2] was “efficiently precipitate only the PDZ domain that they were phage-selected against”. Besides, the “localization” value in test [1] is “localize apically on the lateral membrane to the tight junction”.
For CSWV (peptide), the IC50 in [4] worked out at 1000 nM; in test [5], 1400 nM.
The molecule DVPV (peptide) gave a 50% inhibitory concentration (IC50) in [6] of over 400000 nM.
Consider “Her 2: Her 2 receptor, a previously reported ligand for the ERBIN PDZ”, for which the “binding to / precipitation by GST-ERBIN PDZ” value in test [7] was “specifically precipitated”.
As for TRWWFDI (peptide), the IC50 in [8] was found to be 900 nM.
The molecule TRWWFDI-NH2 (peptide) gave a fold reduction in binding affinity against the unamidated peptide in [9] of 300 fold. The molecule further gave a half-maximal inhibitory concentration (IC50) in test [8] of 300000 nM.
As to VTWV (peptide), the IC50 in test [4] and in test [5] was 4000 nM each time.
As to ASKVTWV (synthetic peptide), the IC50 in [10] turned out to be 800 nM.
Still for that read-out and setting: for DGICSWV (synthetic peptide) the value was 300 nM.

B1: ITKV (peptide)
peptide: ITKV
notes: also called MAGI 3 PDZ2 domain "naturally-selected" ligand
In turn, B1 had an IC50 in test [11] of 200000 nM.
